Experimental data published in patent EP2090664A1 (Universität Konstanz, dated 2009).
No end group written: not given here. *: point of attachment. Biotin = O=C1N[C@H]2[C@H](CS[C@H]2CCCCC(=O)*)N1

B1: human cystatin C (HCC) (other)
chain: SSPGKPPRLVGGPMDASVEEEGVRRALDFAVGEYNKASNDMYHSRALQVVRARKQIVAGVNYFLDVELGRTTCTKTQPNLDNCPFHDQPHLKRKAFCSFQIYAVPWQGTMTLSKSTCQDA
notes: also called intact HCC; complete HCC

Columns and labels:
β-amyloid (Aβ) Aβ (1-40) = target: T1, β-amyloid (Aβ) Aβ (1-40); assay: affinity-MS, Aβ (1-40) on the HCC micro-column
T1 construct: also called Aβ-peptide

N-Cysteinyl-Aβ (1-40) [1] = target: T2, N-Cysteinyl-Aβ (1-40) (N-terminal Cys attached via a thioether bond to UltraLink-Iodoacetyl gel); assay: summary of affinity-MS, epitope excision and ELISA results
T2 construct: also called Cys-Aβ (1-40); immobilized Cys-Aβ-peptide

N-Cysteinyl-Aβ (1-40) [2] = target: T2, N-Cysteinyl-Aβ (1-40); assay: affinity-MS, HCC (93-120) on the immobilized Cys-Aβ (1-40) column
human cystatin C (HCC) = target: B1; assay: ELISA, biotinylated Aβ-peptides on adsorbed HCC

B1
binding result (β-amyloid (Aβ) Aβ (1-40)): binds

B2: HCC (101-117)-peptide (peptide)
peptide: IYAVPWQGTMTLSKSTC
notes: Synthetic peptide; also called C-terminal HCC peptide
binding result (N-Cysteinyl-Aβ (1-40) [1]): binds

B3: HCC (93-120)-peptide (peptide)
peptide: RKAFCSFQIYAVPWQGTMTLSKSTCQDA
notes: Synthetic peptide; also called synthetic HCC (93-120)-peptide
binding result (N-Cysteinyl-Aβ (1-40) [2]): binds

B4: N-terminal peptide Aβ (1-16) (peptide)
peptide: Biotin-GGGGGDAEFRHDSGYEVHHQK
notes: Biotinylated synthetic peptide of the ELISA series
binding result (human cystatin C (HCC)): no binding
